Read-outs that look alike come from different tables or passages of the source.

Assay [1] concerns the target 組換え細菌由来のヒトIL-13 (Peprotech) (human) (UniProt P35225). Kind of assay: cell-based or functional assay.
Assay [2] deals with 未変性の(天然に存在する)ヒトIL-13 (HDLM-2細胞から放出) (human) (UniProt P35225). The assay can be described thus: cell-based or functional assay.
The target in assay [3] is 組換えヒトエオタキシン-1 (R&D Systems) (human) (UniProt P51671). The assay can be described thus: cell-based or functional assay.
Chain of UniProt P51671 (P51671 24-97 limits assumed): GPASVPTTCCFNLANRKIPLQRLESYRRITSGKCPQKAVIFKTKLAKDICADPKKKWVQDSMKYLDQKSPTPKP
In assay [4] the target is T1, 組換え細菌由来のネズミIL-13 (Peprotech) (murine (mouse), UniProt P20109 21-131, limits assumed).
T1 sequence (looked up): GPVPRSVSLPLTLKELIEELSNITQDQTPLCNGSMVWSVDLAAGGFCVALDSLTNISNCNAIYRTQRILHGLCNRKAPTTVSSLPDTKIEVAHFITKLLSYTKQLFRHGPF
Kind of assay: cell-based or functional assay.

Assay [5] deals with T1, 組換え細菌由来のネズミIL-13 (Peprotech). The assay can be described thus: SPR (BIAcore 2000), IgG4 amine-coupled to chip (~500 RU), IL-13 50-0.78 nM in solution. For orientation: Surface plasmon resonance follows binding to a sensor surface in real time, without labels.
For assay [6], the target named is ヒト変種IL-13 (Q130R) (バキュロウイルス発現, C末端親和性タグ付き) (human) (UniProt P35225). The assay can be described thus: cell-based or functional assay.
Assay [7] addresses T2, 非ヒト霊長類IL-13 (アカゲザル/カニクイザル; バキュロウイルス発現, C末端親和性タグ付き) (rhesus / cynomolgus monkey).
T2 chain: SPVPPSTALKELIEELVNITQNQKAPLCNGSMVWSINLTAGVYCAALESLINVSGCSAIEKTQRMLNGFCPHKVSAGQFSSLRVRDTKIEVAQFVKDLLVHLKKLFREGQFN
Kind of assay: cell-based or functional assay.

In assay [8] the target is 組換え細菌由来のヒトIL-13 (Peprotech) (human) (UniProt P35225). The assay can be described thus: SPR (BIAcore 2000), IgG4 amine-coupled to chip (~500 RU), IL-13 50-0.78 nM in solution.
The target of assay [9] is ヒト変種IL-13 (Q130R) (バキュロウイルス発現, C末端親和性タグ付き) (human) (UniProt P35225). Kind of assay: cell-based or functional assay. The source holds these as a separate data set.
For assay [10], the target named is 野生型ヒトIL-13 (バキュロウイルス発現, C末端親和性タグ付き) (human) (UniProt P35225). Kind of assay: cell-based or functional assay.
The target in assay [11] is 組換え細菌由来のヒトIL-13 (Peprotech) (human) (UniProt P35225). Kind of assay: cell-based or functional assay. The source holds these as a separate data set.
In assay [12] the target is 未変性の(天然に存在する)ヒトIL-13 (HDLM-2細胞から放出) (human) (UniProt P35225). Kind of assay: cell-based or functional assay. The source holds these as a separate data set.

Regarding “JES10-5A2 (ラットIgG1, Biosource) (antibody)”, in assay [1], the IC50, NHLFエオタキシン放出アッセイ is 0.623 nM and the IC50, TF-1細胞増殖アッセイ came to 1.02 nM. Also, in assay [2], the IC50, HDLM-2細胞増殖アッセイ stood at 10.7 nM.

As to B-B13 (マウスIgG1, Euroclone) (antibody), in assay [1], the IC50, NHLFエオタキシン放出アッセイ came to 0.219 nM and the IC50, TF-1細胞増殖アッセイ was found to be 0.471 nM. The IC50, HDLM-2細胞増殖アッセイ in assay [2] stood at 16.7 nM.

Molecule BAK502G9 IgG4 (antibody) yielded an IC50, HDLM-2細胞増殖アッセイ in [2] of 4.6 nM.

B1: CAT-213 (antibody, from another filing, V domains shown)
VH: QVQLVQSGGGVVQPGRSLRLSCAASGFTFSSYGMHWVRQAPGKGLEWVAVISYDGSIKHYADSVKGRFTISRDNSKNTLYLQMNSLRTDDTAVYYCAGDTDYGDIDPWGQGTMVTVSS
VL: DIQMTQSPSSVSASVGDRVTITCRASQDISSWLAWYQQKPGKAPKLLIYAASSLQSGVPSRFSGSGSGTDFTLTISSLQPEDFATYYCQQASSFPSITFGQGTRLEIKR
For B1, the 好酸球形態変化 (%ブランク形態変化), 100 nM CAT-213 in [3] worked out at 101%.

B2: BAK209B11 scFv (scFv, V domains shown)
VH: VQLQESGGGGLVQPGGSLRLSCAASGFTFSSYGMSWVRQAPGKGLEWVSSISASGDSTFYADSVKGRFTISRDNNKNMVFLQVNSLRADDTAVYFCAKDWSQWLVGDAFDVWGRGTTVTVSS
VL: DIQLTQSPSTLSASVGDRVTITCRASQSVSLWVAWYQQRPGKAPKLLIYDGSTLQSGVPARFSGSGSGTEFTLTISSLQPDDFATYYCQQYKTFSTFGQGTKVEIK
For B2, the “IC50, TF-1細胞増殖アッセイ” value in [4] amounted to 185 nM.

B3: BAK209B11 IgG4 (antibody, V domains shown)
VH: VQLQESGGGGLVQPGGSLRLSCAASGFTFSSYGMSWVRQAPGKGLEWVSSISASGDSTFYADSVKGRFTISRDNNKNMVFLQVNSLRADDTAVYFCAKDWSQWLVGDAFDVWGRGTTVTVSS
VL: DIQLTQSPSTLSASVGDRVTITCRASQSVSLWVAWYQQRPGKAPKLLIYDGSTLQSGVPARFSGSGSGTEFTLTISSLQPDDFATYYCQQYKTFSTFGQGTKVEIKR
One may read the Kd as the equilibrium constant for the complex coming apart. Consider B3, for which the “IC50, B9細胞増殖アッセイ” value in assay [4] came to 0.776 nM. Moreover, binding in assay [5] was characterised by a dissociation constant (Kd) of 5.1 nM.

B4: BAK502G9 IgG4 (antibody, V domains shown)
VH: QVQLVQSGAEVKKPGASVKVSCKASGYTFTNYGLSWVRQAPGQGLEWMGWISANNGDTNYGQEFQGRVTMTTDTSTSTAYMELRSLRSDDTAVYYCARDSSSSWARWFFDLWGRGTLVTVSS
VL: SYVLTQPPSVSVAPGKTARITCGGNIIGSKLVHWYQQKPGQAPVLVIYDDGDRPSGIPERFSGSNSGNTATLTISRVEAGDEADYYCQVWDTGSDPVVFGGGTKLTVL
For B4, the IC50, TF-1細胞増殖アッセイ in assay [6] came out at 1.9 nM; in [7], 2 nM.

B5: BAK1183H4 IgG4 (antibody, from another filing, V domains shown)
VH: QVQLVQSGAEVKKPGASVKVSCKASGYTFTNYGLSWVRQAPGQGLEWMGWINYDGGNTQYGQEFQGRVTMTTDTSTSTAYMELRSLRSDDTAVYYCARDSSSSWARWFFDLWGRGTLVTVSS
VL: SYVLTQPPSVSVAPGKTARITCGGNIIGSKLVHWYQQKPGQAPVLVIYDDGDRPSGIPERFSGSNSGNTATLTISRVEAGDEADYYCQVWDTGSDPVVFGGGTKLTVL
B5: the dissociation constant (Kd) in assay [8] came to 0.081 nM. For the same molecule, the IC50, TF-1細胞増殖アッセイ in assay [9] was found to be 1 nM; in assay [10], 0.9 nM. In addition, the IC50, HUVEC VCAM-1アップレギュレーション in assay [11] came to 0.058 nM. In [11], this molecule showed an IC50, NHLFエオタキシン放出アッセイ of 0.118 nM. The molecule also returned an IC50, HDLM-2細胞増殖アッセイ in assay [12] of 3.5 nM.

B6: BAK1167F2 IgG4 (antibody, V domains shown)
VH: QVQLVQSGAEVKKPGASVKVSCKASGYTFEQTGVSWVRQAPGQGLEWMGWISANNGDTNYGQEFQGRVTMTTDTSTSTAYMELRSLRSDDTAVYYCARDSSSSWARWFFDLWGRGTLVTVSS
VL: SYVLTQPPSVSVAPGKTARITCGGNIIGSKLVHWYQQKPGQAPVLVIYDDGDRPSGIPERFSGSNSGNTATLTISRVEAGDEADYYCQVWDTGSDPVVFGGGTKLTVL
As for B6, the “IC50, TF-1細胞増殖アッセイ” value was determined as 1.3 nM in assay [7], 1.1 nM in [9] and 1 nM in assay [10]. The same molecule registered a Kd in assay [8] of 0.136 nM. Further, in [11], the IC50, HUVEC VCAM-1アップレギュレーション amounted to 0.055 nM. In addition, in assay [11], the IC50, NHLFエオタキシン放出アッセイ was 0.069 nM. The same molecule gave an IC50, HDLM-2細胞増殖アッセイ in assay [12] of 1.1 nM.

B7: BAK1183H4 IgG4 (antibody, V domains shown)
VH: QVQLVQSGAEVKKPGASVKVSCKASGYTFTNYGLSWVRQAPGQGLEWMGWINYDGGNTQYGQEFQGRVTMTTDTSTSTAYMELRSLRSDDTAVYYCARDSSSSWARWFFDLWGRGTLVTVSS
VL: SYVLTQPPSVSVAPGKTARIPCGGNIIGSKLVHWYQQKPGQAPVLVIYDDGDRPSGIPERFSGSNSGNTATLTISRVEAGDEADYYCQVWDTGSDPVVFGGGTKLTVL
Take B7: the “IC50, TF-1細胞増殖アッセイ” value in assay [7] amounted to 1.6 nM.

These data come from patent publication JP2011147454A (dated 2011).
